Experiments:
[1] = target: T1, PD-1-mIgGFc fusion protein; assay: ELISA on coated PD-1-mFc; antibody 1 µg/ml diluted 1:81; replicate 2
T1 construct: also called PD-1-mFc; PD-1-mIgGFc antigen
Protocol: (§1) An ELISA plate was coated with PD-1-mFc antigen in a concentration of 0.5 μg/ml (50 μl per well) by incubation at 4° C. overnight.
(§2) After the ELISA plate was washed with the PBST buffer for three times and gently patted to dryness again, TMB as a developer in 50 μl per well was added for incubation at room temperature for 5 to 10 minutes.
(§3) The absorbance of solution in each well was measured with the microplate reader under a wavelength of 450 nm.

[2] = target: biotin-labeled PD-1 antigen (UniProt Q15116 25-167, limits assumed, biotin-labeled (site not stated)); assay: BLI (Fortebio), biotin-labeled PD-1 on SA sensor
biotin-labeled PD-1 antigen, sequence (Q15116 25-167 limits assumed): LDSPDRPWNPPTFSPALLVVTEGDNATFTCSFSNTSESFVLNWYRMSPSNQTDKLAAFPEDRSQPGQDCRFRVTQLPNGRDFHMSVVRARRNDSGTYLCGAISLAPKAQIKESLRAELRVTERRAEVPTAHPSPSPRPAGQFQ
Protocol: Kinetic characteristic parameters of 18A10 H1L1, H2L2 and H3L3 antibodies were determined using the Fortebio molecule interaction instrument.
The biotin-labeled PD-1 antigen was immobilized on the surface of the SA sensor. […] Assays for H2L2 and H3L3 are the same as H1L1. Results of kinetic characteristic parameters of the H1L1, H2L2 and H3L3 antibodies are shown in Table 4, FIG. 4, FIG. 5 and FIG. 6.

[3] = target: T1, PD-1-mIgGFc fusion protein; assay: ELISA on coated PD-1-mFc; antibody 1 µg/ml diluted 1:3; replicate 2
Protocol: as §1, §2, §3

[4] = target: T1, PD-1-mIgGFc fusion protein; assay: ELISA on coated PD-1-mFc; antibody 1 µg/ml diluted 1:243; replicate 1
Protocol: as §1, §2, §3

[5] = target: T2, PD-1 antigen stably expressed on the surface of BB007 cells (UniProt Q15116 25-288, limits assumed); assay: flow cytometry on BB007 cells; antibody 20 nM
T2 construct: whole, on cells; also called target protein PD-1 on the surface of the BB007 cell
T2 sequence (Q15116 25-288 limits assumed): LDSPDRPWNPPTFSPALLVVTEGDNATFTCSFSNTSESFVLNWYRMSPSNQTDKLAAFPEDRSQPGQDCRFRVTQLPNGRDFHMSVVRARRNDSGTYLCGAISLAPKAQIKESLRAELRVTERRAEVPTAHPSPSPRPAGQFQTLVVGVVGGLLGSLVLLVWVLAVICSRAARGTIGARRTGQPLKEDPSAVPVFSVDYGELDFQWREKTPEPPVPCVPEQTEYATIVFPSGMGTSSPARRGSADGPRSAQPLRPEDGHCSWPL
Protocol: (§4) The binding efficiencies of H1L1, H2L2 and H3L3 antibodies to PD-1 antigen stably expressed on the surface of cells (named as BB007 cells) were determined by flow cytometry. The BB007 cells were obtained by routine trypsin digestion, and then washed with PBS buffer once, followed by dividing into several tubes, with 2×10⁵ cells per tube. After dilution into concentrations of 20 nM, 10 nM, 5 nM, 1 nM, 0.1 nM and 0 nM with the PBS buffer containing 1% BSA for each of the H1L1, H2L2 and H3L3 antibodies, individual antibodies in a volume of 100 μl were added into individual tubes and incubated on ice for 1 hour. After the mixture was washed with the PBS buffer once, 100 μl FITC-Goat-Anti-Human IgG (in 1:500 dilution) was added for each tube and incubated on ice for 1 hour, followed by addition of 300 μl the PBS buffer for detecting fluorescence signal with a FITC channel on the flow cytometer.

[6] = target: T1, PD-1-mIgGFc fusion protein; assay: ELISA on coated PD-1-mFc; antibody 1 µg/ml diluted 1:9; replicate 2
Protocol: as §1
The ELISA plate coated with the PD-1-mFc antigen was blocked with 1% BSA in the PBS buffer at 37° C. for 2 hours, and washed with 1×PBST buffer containing 1% Tween-20 for three times, with gently patting to dryness.
as §3

[7] = target: T1, PD-1-mIgGFc fusion protein; assay: competitive ELISA on coated PD-1-mIgGFc; competitor PDL1-mIgG2aFc 0.3 µg/ml; antibody 1.5 µg/ml diluted 1:27; replicate 1
Protocol: (§5) A 96-well ELISA plate was coated with PD-1-mIgGFc antigen in a concentration of 0.5 μg/ml (50 μl per well) by incubation at 4° C. overnight.
(§6) The 18A10 H1L1, 18A10 H2L2 and 18A10 H3L3 antibodies each were diluted from 3 μg/ml in series by 1:3, with 7 gradient antibody solutions obtained for each antibody. The 7 gradient antibody solutions for each antibody and the blank PBS control (50 μl per well) were respectively added into the blocked 96-well ELISA plate for incubation at room temperature for 10 minutes.
(§7) After the 96-well ELISA plate was washed with the PBST buffer for three times and gently patted to dryness, goat anti-mouse IgG-HRP (H+L) as a secondary antibody in 1:5000 dilution (50 μl per well) was added for incubation at 37° C. for 1 hour.

[8] = target: T2, PD-1 antigen stably expressed on the …; assay: flow cytometry on BB007 cells; antibody 1 nM
Protocol: as §4

[9] = target: T1, PD-1-mIgGFc fusion protein; assay: competitive ELISA on coated PD-1-mIgGFc; competitor PDL1-mIgG2aFc 0.3 µg/ml; antibody 1.5 µg/ml diluted 1:3; replicate 1
Protocol: as §5, §6, §7

[10] = target: T1, PD-1-mIgGFc fusion protein; assay: competitive ELISA on coated PD-1-mIgGFc; competitor PDL1-mIgG2aFc 0.3 µg/ml; antibody 1.5 µg/ml diluted 1:729; replicate 2
Protocol: as §5, §6, §3

[11] = target: T1, PD-1-mIgGFc fusion protein; assay: competitive ELISA on coated PD-1-mIgGFc; competitor PDL1-mIgG2aFc 0.3 µg/ml; antibody 1.5 µg/ml diluted 1:729; replicate 1
Protocol: as §5, §6, §7

[12] = target: T1, PD-1-mIgGFc fusion protein; assay: competitive ELISA on coated PD-1-mIgGFc; competitor PDL1-mIgG2aFc 0.3 µg/ml; antibody 1.5 µg/ml diluted 1:243; replicate 1
Protocol: as §5, §6, §7

[13] = target: T1, PD-1-mIgGFc fusion protein; assay: ELISA on coated PD-1-mFc
Protocol: as §1, §3

[14] = target: T1, PD-1-mIgGFc fusion protein; assay: ELISA on coated PD-1-mFc; antibody 1 µg/ml diluted 1:729; replicate 2
Protocol: as §1, §2, §3

[15] = target: T1, PD-1-mIgGFc fusion protein; assay: competitive ELISA on coated PD-1-mIgGFc; competitor PDL1-mIgG2aFc 0.3 µg/ml; antibody 1.5 µg/ml diluted 1:81; replicate 2
Protocol: as §5, §6, §3

[16] = target: T1, PD-1-mIgGFc fusion protein; assay: competitive ELISA on coated PD-1-mIgGFc; competitor PDL1-mIgG2aFc 0.3 µg/ml; antibody 1.5 µg/ml; replicate 1
Protocol: as §5, §6, §3

[17] = target: T1, PD-1-mIgGFc fusion protein; assay: competitive ELISA on coated PD-1-mIgGFc; competitor PDL1-mIgG2aFc 0.3 µg/ml; antibody 1.5 µg/ml diluted 1:9; replicate 1
Protocol: as §5, §6, §7

T1 sequence (chain, as listed by the source limits assumed): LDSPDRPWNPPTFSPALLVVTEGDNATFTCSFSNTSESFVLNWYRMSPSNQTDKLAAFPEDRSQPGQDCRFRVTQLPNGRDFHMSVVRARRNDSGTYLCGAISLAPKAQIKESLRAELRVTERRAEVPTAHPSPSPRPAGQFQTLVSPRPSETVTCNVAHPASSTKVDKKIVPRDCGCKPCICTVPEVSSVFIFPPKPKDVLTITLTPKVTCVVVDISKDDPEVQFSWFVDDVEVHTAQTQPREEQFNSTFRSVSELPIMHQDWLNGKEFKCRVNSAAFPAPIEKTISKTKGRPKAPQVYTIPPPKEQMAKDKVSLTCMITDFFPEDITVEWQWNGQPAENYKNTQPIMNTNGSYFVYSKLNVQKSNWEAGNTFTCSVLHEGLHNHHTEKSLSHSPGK

| absorbance at 450 nm [1] | Kd [2] [pM] | koff [2] [s⁻¹] | kon [2] [M⁻¹ s⁻¹] | absorbance at 450 nm [3] | absorbance at 450 nm [4] | fluorescence intensity [5] | absorbance at 450 nm [6] | absorbance at 450 nm (competition) [7] | fluorescence intensity [8] | absorbance at 450 nm (competition) [9] | absorbance at 450 nm (competition) [10] | absorbance at 450 nm (competition) [11] | absorbance at 450 nm (competition) [12] | EC50 [13] [pM] | absorbance at 450 nm [14] | absorbance at 450 nm (competition) [15] | absorbance at 450 nm (competition) [16] | absorbance at 450 nm (competition) [17] | Binder |
| --- | --- | --- | --- | --- | --- | --- | --- | --- | --- | --- | --- | --- | --- | --- | --- | --- | --- | --- | --- |
| 1.14 | 42.8 | 9.86e-06 | 231000 | 2.36 | 0.545 | 329 | 1.98 | 0.951 | 92.5 | 0.097 | 1.19 | 1.2 | 1.16 | 111 | 0.224 | 1.1 | 0.11 | 0.474 | humanized antibody 18A10 H2L2 (antibody, V domains shown, also called H2L2 antibody) VH: EVQLVQSGGGLVQPGGSLKLSCAASGFTFSSYGMSWVRQAPGKGLDWVATISGGGRDTYYPDSVKGRFTISRDNSKNNLYLQMNSLRAEDTALYYCARQKGEAWFAYWGQGTLVTVSS VL: not shown |
| 0.834 | 36 | 1.32e-05 | 367000 | 2.34 | 0.45 | 358 | 1.98 | 1.06 | 64.4 | 0.123 | 1.3 | 1.35 | 1.26 | 156 | 0.163 | 1.14 | 0.11 | 0.625 | humanized antibody 18A10 H1L1 (antibody, V domains shown, also called H1L1 antibody) VH: EVQLVQSGGGLVQPGGSLKLSCAASGFTFSSYGMSWVRQTPEKGLDWVATISGGGRDTYYPDSVKGRFTISRDNSKNNLYLQMNSLRAEDTALYYCARQKGEAWFAYWGQGTLVTVSS VL: not shown |
| 0.809 | 114 | 1.56e-05 | 137000 | 2.09 | 0.432 | 367 | 2.06 | 1 | 110 | 0.103 | 1.24 | 1.28 | 1.2 | 144 | 0.185 | 1.19 | 0.101 | 0.7 | humanized antibody 18A10 H3L3 (antibody, V domains shown, also called H3L3 antibody) VH: EVQLVQSGGGLVQPGGSLKLSCAASGFTFSSYGMSWVRQAPGKGLDWVATISGGGRDTYYPDSVKGRFTISRDNSKNTLYLQMNSLRAEDTAVYYCARQKGEAWFAYWGQGTLVTVSS VL: DIVLTQSPASLAVSPGQRATITCRASESVDNYGISFMNWYQQKPGQPPKLLIYAASNKATGVPARFSGSGSGTDFTLNINPMEANDTAVYFCQQSKEVPWTFGGGTKLEIK |

From patent US20190040138A1 (AKESO BIOPHARMA, published 2019)
